Assay results reported in patent publication US6727407.

Experiments:
His-tagged CKB3 = molecular target: T1, His-tagged CKB3
T1 chain: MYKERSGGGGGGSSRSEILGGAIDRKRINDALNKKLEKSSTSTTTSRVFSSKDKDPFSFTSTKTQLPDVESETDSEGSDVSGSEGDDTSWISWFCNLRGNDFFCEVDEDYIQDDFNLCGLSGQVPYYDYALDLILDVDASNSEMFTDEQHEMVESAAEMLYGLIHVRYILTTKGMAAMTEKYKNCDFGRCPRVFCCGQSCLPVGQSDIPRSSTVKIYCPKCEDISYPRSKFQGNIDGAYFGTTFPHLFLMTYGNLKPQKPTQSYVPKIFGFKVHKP

GST-LHY, Q6R0H1 = molecular target: T2, GST-LHY, Q6R0H1
T2 chain: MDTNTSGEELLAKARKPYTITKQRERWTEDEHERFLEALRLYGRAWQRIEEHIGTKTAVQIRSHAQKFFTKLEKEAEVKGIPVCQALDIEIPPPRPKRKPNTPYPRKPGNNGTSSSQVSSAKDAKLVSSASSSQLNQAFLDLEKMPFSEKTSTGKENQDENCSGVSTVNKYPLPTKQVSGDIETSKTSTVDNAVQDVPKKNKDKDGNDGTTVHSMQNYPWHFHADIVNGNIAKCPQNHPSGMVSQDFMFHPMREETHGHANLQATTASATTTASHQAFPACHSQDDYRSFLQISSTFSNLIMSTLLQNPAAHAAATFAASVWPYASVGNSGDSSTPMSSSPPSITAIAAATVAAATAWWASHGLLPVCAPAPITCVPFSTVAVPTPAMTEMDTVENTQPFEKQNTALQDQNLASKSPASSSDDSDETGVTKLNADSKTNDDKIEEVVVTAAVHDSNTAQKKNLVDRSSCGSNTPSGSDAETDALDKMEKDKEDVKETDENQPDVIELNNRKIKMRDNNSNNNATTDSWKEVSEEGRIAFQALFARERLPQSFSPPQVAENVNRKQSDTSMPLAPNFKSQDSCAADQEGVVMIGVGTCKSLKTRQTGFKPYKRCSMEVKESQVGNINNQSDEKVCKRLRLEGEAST

His-tagged CKB1, P40228 = molecular target: T3, His-tagged CKB1, P40228
T3 chain: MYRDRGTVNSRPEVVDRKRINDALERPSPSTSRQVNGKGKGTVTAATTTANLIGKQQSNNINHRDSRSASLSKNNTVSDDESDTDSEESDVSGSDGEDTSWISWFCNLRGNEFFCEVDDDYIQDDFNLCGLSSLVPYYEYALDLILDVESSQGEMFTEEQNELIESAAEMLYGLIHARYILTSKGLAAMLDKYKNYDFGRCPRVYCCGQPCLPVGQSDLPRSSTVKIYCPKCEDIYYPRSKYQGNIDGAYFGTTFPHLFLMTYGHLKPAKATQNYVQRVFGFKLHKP

[1] = molecular target: glutathione-S-transferase (GST) [GST: P08515]
Sequence of glutathione-S-transferase (GST) [GST: P08515] (P08515 whole entry): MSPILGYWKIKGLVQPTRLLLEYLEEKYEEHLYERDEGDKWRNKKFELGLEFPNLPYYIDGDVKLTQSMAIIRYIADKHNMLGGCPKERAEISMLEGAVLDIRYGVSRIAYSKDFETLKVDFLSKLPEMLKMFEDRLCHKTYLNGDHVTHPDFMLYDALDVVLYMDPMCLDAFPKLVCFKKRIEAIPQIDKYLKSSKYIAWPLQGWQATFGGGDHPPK

Sequence of GST-CCA1, P92973 (P92973 whole entry): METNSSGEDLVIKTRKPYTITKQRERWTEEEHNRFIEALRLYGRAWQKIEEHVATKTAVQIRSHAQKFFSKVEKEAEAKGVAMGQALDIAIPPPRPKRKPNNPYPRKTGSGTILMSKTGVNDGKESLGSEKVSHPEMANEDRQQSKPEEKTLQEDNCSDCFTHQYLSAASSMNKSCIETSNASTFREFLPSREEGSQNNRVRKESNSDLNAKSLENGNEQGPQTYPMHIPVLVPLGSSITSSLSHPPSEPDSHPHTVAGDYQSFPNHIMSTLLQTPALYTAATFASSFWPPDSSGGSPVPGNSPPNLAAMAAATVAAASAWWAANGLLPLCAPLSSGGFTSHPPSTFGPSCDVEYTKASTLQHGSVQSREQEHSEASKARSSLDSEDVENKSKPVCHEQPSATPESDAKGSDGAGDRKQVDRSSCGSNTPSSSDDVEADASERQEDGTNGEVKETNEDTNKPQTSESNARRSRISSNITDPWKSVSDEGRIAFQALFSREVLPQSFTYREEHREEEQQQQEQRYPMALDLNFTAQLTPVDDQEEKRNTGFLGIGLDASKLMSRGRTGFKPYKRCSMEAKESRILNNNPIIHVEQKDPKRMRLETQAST

B1: CKA1 (α-subunit of Arabidopsis protein kinase CK2) (protein)
chain: MSKARVYTEVNVIRPKDYWDYESLIVQWGEQDDYEVVRKVGRGKYSEVFEGINVNSKEKCIIKILKPVKKKKIRREIKILQNLCGGPNIVKLLDVVRDQHSKTPSLIFEYVNSTDFKVLYPTLTDYDIRYYIYELLKALDFCHSQGIMHRDVKPHNVMIDHELRKLRLIDWGLAEFYHPGKEYNVRVASRYFKGPELLVDLQDYDYSLDMWSLGCMFAGMIFRKEPFFYGHDNQDQLVKIAKVLGTDELNAYLNKYQLELDPQLEALVGRHSRKPWSKFINADNQHLVSPEAIDFLDKLLRYDHQDRLTAKEAMAHAYFAQVRAAETSRMRSQ
For B1, the “in vitro phosphorylation with [γ-32P]ATP, SDS-PAGE autoradiography” value (“in vitro phosphorylation with [γ-32P]ATP” for short) (GST-CCA1, P92973) was “a large amount of CKA1 (280 ng) phosphorylates GST-CCA1 but not GST”, the “phosphorylation of GST-CCA1 by 14 ng of CKA1 with 35 ng of β-subunit” value (His-tagged CKB3) was “a strong stimulation of the CCA1 phosphorylation was observed by adding either CKB1 or CKB3” and the “phosphorylation of GST-LHY by CKA1 with added β-subunit” value (His-tagged CKB3) was “this phosphorylation was enhanced by adding either CKB1 or CKB3”. The “in vitro phosphorylation with [γ-32P]ATP” value (GST-LHY, Q6R0H1) was “CKA1, the α-subunit of CK2, could phosphorylate LHY”, the “phosphorylation of GST-CCA1 by 14 ng of CKA1 with 35 ng of β-subunit” value (His-tagged CKB1, P40228) was “a strong stimulation of the CCA1 phosphorylation was observed by adding either CKB1 or CKB3” and the “phosphorylation of GST-LHY by CKA1 with added β-subunit” value (His-tagged CKB1, P40228) was “this phosphorylation was enhanced by adding either CKB1 or CKB3”. The “in vitro phosphorylation with [γ-32P]ATP” value [1] was “a large amount of CKA1 (280 ng) phosphorylates GST-CCA1 but not GST”.
